Assay results: patent US20060292151A1, “L-SIGN polymorphisms and methods involving use of same” (priority 2004, published 2006)

System: HCV pseudovirion entry
Assay: HCV pseudovirion entry into target cells
Type: cell-based
Details: E1/E2-mediated entry of pseudovirions
Text: The procedure of Bartosch et al. (2003b) was used to generate retroviral particles pseudotyped with HCV envelope glycoproteins (HCV pseudovirus particles; HCVpp). Briefly, in order to generate HCV pseudovirions, 293T cells were cotransfected with HIV-1-based (pLenti6, Invitrogen) or MMLV-based (pFB, Stratagene, La Jolla, Calif.) retroviral vectors and vectors expressing structural genes, including Gag, Pol and envelope glycoproteins (see FIG. 2). In addition, the HIV-1-based vector was cotransfected with a Rev-encoding plasmid to enable transport of genomic RNAs from the nucleus to the cytoplasm.
Antibodies against E2 as well as HCV+ sera inhibited E1/E2-mediated entry.

B1: soluble CD81 ECL2 peptide: soluble CD81 ECL2 peptide (peptide)
peptide: FVNKDQIAKDVKQFYDQALQQAVVDDDANNAKAVVKTFHETLDCCGSSTLTALTTSVLKNNLCPSGSNIISNLFKEDCHQKIDDLFSGK
inhibition of HCV pseudovirion entry: inhibited HCV pseudovirion entry
